{"source": "paper PMC11931385", "about": "“Structural and functional analysis of cancer-associated missense variants in the retinoblastoma protein pocket domain” (The Journal of Biological Chemistry, 2025)", "binders": {"B1": {"name": "TMR-E2F1^TD, peptide of the E2F1 transactivation domain (peptide)", "peptide": "{TMR}-GEGIRDLFDCDFGDLTPLD", "notes": "also called E2F^TD; source: synthetic peptide, bought: GenScript"}, "B2": {"name": "TMR-E7^LxCxE, LxCxE peptide of the E7 oncoprotein from HPV (peptide)", "peptide": "DLYCYEQLN", "modifications": "also: TMR label, position not given here", "notes": "source: synthetic peptide, bought: GenScript"}}, "test_in_all_cases": "fluorescence polarisation; 37 °C, after the 25 °C reading ramped over 7 min to 37 °C and 2 min incubation; unlabeled Rb^P against 1.5 nM TMR-E2F1^TD or 7.5 nM TMR-E7^LxCxE; 25 mM Tris pH 8.0, 200 mM NaCl, 1 mM DTT, 0.1% Tween-20; apparent Kd", "conditions_in_all_cases": "both partners purified", "key": {"[1]": {"target": "T1, Rb^P S474N (human, UniProt P06400 380-788, S474N)", "T1 construct": "also called variant 12", "T1 sequence (looked up)": "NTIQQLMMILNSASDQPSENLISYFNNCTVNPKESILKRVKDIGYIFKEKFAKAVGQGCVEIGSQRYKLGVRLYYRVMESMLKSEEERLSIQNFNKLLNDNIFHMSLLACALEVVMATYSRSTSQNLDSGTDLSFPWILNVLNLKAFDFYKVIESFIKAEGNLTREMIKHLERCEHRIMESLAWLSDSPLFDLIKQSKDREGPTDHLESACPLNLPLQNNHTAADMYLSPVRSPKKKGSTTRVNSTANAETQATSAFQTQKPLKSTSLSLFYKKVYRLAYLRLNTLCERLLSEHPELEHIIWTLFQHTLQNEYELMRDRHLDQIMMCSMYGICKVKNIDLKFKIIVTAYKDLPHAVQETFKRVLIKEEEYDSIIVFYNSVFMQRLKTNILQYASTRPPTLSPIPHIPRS"}, "[2]": {"target": "T2, Rb^P S534R (human, UniProt P06400 380-788, S534R)", "T2 construct": "also called variant 23", "T2 sequence (looked up)": "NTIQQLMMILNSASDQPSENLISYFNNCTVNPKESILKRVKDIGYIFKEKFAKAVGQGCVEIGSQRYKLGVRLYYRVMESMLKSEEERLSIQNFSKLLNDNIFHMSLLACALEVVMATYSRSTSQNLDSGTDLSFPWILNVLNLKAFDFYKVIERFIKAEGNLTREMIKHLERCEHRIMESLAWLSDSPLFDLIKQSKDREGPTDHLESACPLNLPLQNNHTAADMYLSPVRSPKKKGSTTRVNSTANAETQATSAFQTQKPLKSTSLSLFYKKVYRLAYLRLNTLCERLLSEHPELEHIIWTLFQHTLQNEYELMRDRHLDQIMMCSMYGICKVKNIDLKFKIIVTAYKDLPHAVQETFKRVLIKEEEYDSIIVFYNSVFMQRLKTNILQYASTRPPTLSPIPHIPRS"}, "[3]": {"target": "T3, Rb^P H585Y (human, UniProt P06400 380-788, H585Y)", "T3 construct": "also called variant 33", "T3 sequence (looked up)": "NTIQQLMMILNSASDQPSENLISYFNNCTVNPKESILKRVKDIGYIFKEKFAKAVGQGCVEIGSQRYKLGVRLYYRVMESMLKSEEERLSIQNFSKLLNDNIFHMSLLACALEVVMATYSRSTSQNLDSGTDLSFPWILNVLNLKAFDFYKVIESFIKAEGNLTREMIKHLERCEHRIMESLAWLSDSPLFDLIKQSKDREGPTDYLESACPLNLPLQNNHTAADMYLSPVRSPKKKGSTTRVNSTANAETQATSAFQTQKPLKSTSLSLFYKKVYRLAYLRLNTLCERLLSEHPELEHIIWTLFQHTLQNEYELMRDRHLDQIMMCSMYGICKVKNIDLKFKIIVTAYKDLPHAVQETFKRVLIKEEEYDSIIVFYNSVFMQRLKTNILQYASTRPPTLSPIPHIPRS"}, "[4]": {"target": "T4, Rb^P D604G (human, UniProt P06400 380-788, D604G)", "T4 construct": "also called variant 36", "T4 sequence (looked up)": "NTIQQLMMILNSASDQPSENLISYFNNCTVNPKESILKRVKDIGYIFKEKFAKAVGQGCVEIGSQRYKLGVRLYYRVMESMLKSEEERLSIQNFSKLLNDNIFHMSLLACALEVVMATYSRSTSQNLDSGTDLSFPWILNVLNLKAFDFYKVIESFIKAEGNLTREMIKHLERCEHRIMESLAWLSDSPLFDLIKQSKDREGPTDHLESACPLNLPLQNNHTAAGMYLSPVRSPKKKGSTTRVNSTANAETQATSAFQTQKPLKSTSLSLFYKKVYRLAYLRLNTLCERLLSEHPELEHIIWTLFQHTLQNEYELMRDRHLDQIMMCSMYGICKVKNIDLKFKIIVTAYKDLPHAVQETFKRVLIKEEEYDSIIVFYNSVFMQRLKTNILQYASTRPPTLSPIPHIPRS"}, "[5]": {"target": "T5, Rb^P M761L (human, UniProt P06400 380-788, M761L)", "T5 construct": "also called variant 74", "T5 sequence (looked up)": "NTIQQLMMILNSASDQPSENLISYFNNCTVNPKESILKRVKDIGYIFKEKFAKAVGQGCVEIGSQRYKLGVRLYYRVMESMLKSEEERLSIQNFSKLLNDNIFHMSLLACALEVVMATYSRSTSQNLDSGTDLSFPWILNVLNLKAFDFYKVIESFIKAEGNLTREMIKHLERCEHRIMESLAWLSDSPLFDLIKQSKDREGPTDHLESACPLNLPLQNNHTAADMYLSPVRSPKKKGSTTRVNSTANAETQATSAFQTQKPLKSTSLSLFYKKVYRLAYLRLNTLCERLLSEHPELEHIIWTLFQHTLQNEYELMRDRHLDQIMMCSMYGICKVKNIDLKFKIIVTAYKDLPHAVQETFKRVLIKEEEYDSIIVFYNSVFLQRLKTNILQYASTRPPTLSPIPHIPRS"}}, "note": "No end group written: not given here. TMR = tetramethyl rhodamine dye", "data": [{"binder": "B1", "values": [{"measurement": "Kd", "setting": "[1]", "result": 26, "unit": "nM"}, {"measurement": "Kd", "setting": "[2]", "result": 18000, "unit": "nM"}, {"measurement": "Kd", "setting": "[3]", "result": 92, "unit": "nM"}, {"measurement": "Kd", "setting": "[4]", "result": 50, "unit": "nM"}, {"measurement": "Kd", "setting": "[5]", "result": 68, "unit": "nM"}]}, {"binder": "B2", "values": [{"measurement": "Kd", "setting": "[1]", "result": 13, "unit": "nM"}, {"measurement": "Kd", "setting": "[2]", "result": 11, "unit": "nM"}, {"measurement": "Kd", "setting": "[3]", "result": 18, "unit": "nM"}, {"measurement": "Kd", "setting": "[4]", "result": 26, "unit": "nM"}, {"measurement": "Kd", "setting": "[5]", "result": 5, "unit": "nM"}]}]}
